Laboratory results: the DeepSol protein solubility set

Experiment: soluble on expression in E. coli; label from the status in PepcDB or PDB records

Sequence: MKKSKRKNAQAQEAQETEVLVQEEAEELPEFPEGEPDPDLEDPDLTLEDDLLDLPEEGEGLDLEEEEEDLPIPKISTSDPVRQYLHEIGQVPLLTLEEEVELARKVEEGMEAIKKLSEITGLDPDLIREVVRAKILGSARVRHIPGLKETLDPKTVEEIDQKLKSLPKEHKRYLHIAREGEAARQHLIEANLRLVVSIAKKYTGRGLSFLDLIQEGNQGLIRAVEKFEYKRRFKFSTYATWWIRQAINRAIADQARTIRIPVHMVETINKLSRTARQLQQELGREPTYEEIAEAMGPGWDAKRVEETLKIAQEPVSLETPIGDEKDSFYGDFIPDEHLPSPVDAATQSLLSEELEKALSKLSEREAMVLKLRKGLIDGREHTLEEVGAFFGVTRERIRQIENKALRKLKYHESRTRKLRDFLD
- soluble on expression in E. coli: soluble

Sequence: MGSDKIHHHHHHMADYQQMWANLGMDLEKHDVLCEVLPEAFGGVYLTQQDRPKGMDFYDFVVSEIHGVRPAEMLQHQKEGGKVFGTFCVYVPDEVVFAAGGIAAGLCGGSQFWVSGGEKVLPANTCPLIKASVGARLDKTCPFFLIPDMYVAENTCDGKKKAWEILAGEVPMHIIDIPQMKRERDVAAFAAEIRDFIGVVEKVTGKKINAESLGEAIKLINNKRRALQRVYNARKASPVPISGKDALLVTQINFYDDPARAAQMANNLADELEQRINNGTGVFPENAPRIMISGTPMAIPNWKLHHIVESLGAAIVVEESCTGTRYFENLVDETASTLDEQIRALAERYMKTNCACFTPNSARIDDIIRLADEYKVDGIIDTNLQFCNLYSTESYLIKQVMTERNLPIIHIETDYSEQDFEQLRTRVEAFLEMLRK
- soluble on expression in E. coli: not soluble

Sequence: KDLKIVMLTDIHLGKNLHENFLDKLITKVNLQSPDMVVIVGDLIDTNPKDLKNYISKLNDFNSTYGTFYALGNHEYYHGINEVLDLLRKHTNMKILVNQNLDLGFIDIAGLGDLAGLDRGLYAPDLARIKVDLNTSKASILLTHQPKTALLYDLSDFDLVLSGHTHGGQIFPFMFLV
- soluble on expression in E. coli: not soluble

Sequence: PEQEEEILGSDDDEQEDPNDYCKGGYHLVKIGDLFNGRYHVIRKLGWGHFSTVWLSWDIQGKKFVAMKVVKSAEHYTETALDEIRLLKSVRNSDPNDPNREMVVQLLDDFKISGVNGTHICMVFEVLGHHLLKWIIKSNYQGLPLPCVKKIIQQVLQGLDYLHTKCRIIHTDIKPENILLSVNEQYIRRLAAEATEWQRSGAPPPSGSAVSTAPATAGNFLVNPLEPKNAEKLKVKIADLGNACWVHKHFTEDIQTRQYRSLEVLIGSGYNTPADIWSTACMAFELATGDYLFEPHSGEEYTRDEDHIALIIELLGKVPRKLIVAGKYSKEFFTKKGDLKHITKLKPWGLFEVLVEKYEWSQEEAAGFTDFLLPMLELIPEKRATAAECLRHPWLNS
- soluble on expression in E. coli: soluble

Sequence: MPALEFFKDKERGVLDPKVFERAREVAEGLARGKLKSSQFRNYFAELRALENRFERERRKEGEELAFARLVPQLELLRAKLFYNTRSQGPLRDAKEFVEFMEEALEAGKRSPKDFEAMMKYVEAVLAYFYALAK
- soluble on expression in E. coli: soluble

Sequence: MELLPQGQRNNTQVTFEDQQKINEFSKLIMRKDAIAQELSLQREEKEYLDDVSLEIELIDEDEPVQYKVGDLFIFMKQSKVTAQLEKDAERLDNKIETLEDKQRDIDSRLDALKAILYAKFGDNINLER
- soluble on expression in E. coli: not soluble

Sequence: MPLSPYLSFAGNCSDAIAYYQRTLGAELLYKISFGEMPKSAQDSAENCPSGMQFPDTAIAHANVRIAGSDIMMSDAIPSGKASYSGFTLVLDSQQVEEGKRWFDNLAANGKIEMAWQETFWAHGFGKVTDKFGVPWMINVVKQQPTQ
- soluble on expression in E. coli: not soluble

Sequence: MSLDAIEAEREVLIGFLQEFVRAASPNPPGDTRAAAAVIQGFLSARGVPNELLGPQESMPNVVSECEGGRAGPRLVYNGHMDVFPVGDGHGWTRDPWSGDIEEGRLHGRGTCDMKTGTAASVIAYAYLYARRAQLAGSVALTAVSDEETGGRWGTRWLLENDTRWRGDCVLNGEPSSLDTIRFSEKGTLRLKFEVLAAGAHGAYVHRSESPTRIAAALIGRLAEVEAIEPSLPAALKAHLQREDVRRALDVAMGEGAADVVTRTTLNVGVLNGGLKINMIPDRCVFEVDIRLPVGTEPDVVLARLEGILAEFPQASMEVQQWHSTPPNVCAHDHPMVDFIADNAQAIVGRRPVAVPSIGSTDCRYWRRSGVPAYVYGPAPGRMAMSNESVDLDEFIAVAKVHAAAGWDYLNGAAEGHHHHHH
- soluble on expression in E. coli: not soluble

Sequence: MVQHLTAEEIIQYISDAKKSTPIKVYLNGNFEGITYPESFKVFGSEQSKVIFCEADDWKPFYEAYGSQFEDIEIEMDRRNSAIPLKDLTNTNARIEPGAFIREQAIIEDGAVVMMGATINIGAVVGEGTMIDMNATLGGRATTGKNVHVGAGAVLAGVIEPPSASPVIIEDDVLIGANAVILEGVRVGKGAIVAAGAIVTQDVPAGAVVAGTPAKVIKQASEVQDTKKEIVAALRKLND
- soluble on expression in E. coli: not soluble

Sequence: MTNFATTDDVILLWRQLSVDEIKRAEALLETVSDTLRLEASKVGKNLDEMILETPYFATVLKSVTVDIVARTLMTATQGEPMSQESQSALGYTWSGTYLVPGGGLFIKDSELKRLGLKKQRYGGIELYGEIERNNSYFSRQDD
- soluble on expression in E. coli: not soluble

Sequence: MAHHHHHHMGTLEAQTQGPGSMTGPLAAARSVAATKSMTAPTVDERPDIKKGLAGVVVDTTAISKVVPQTNSLTYRGYPVQDLAARCSFEQVAFLLWRGELPTDAELALFSQRERASRRVDRSMLSLLAKLPDNCHPMDVVRTAISYLGAEDPDEDDAAANRAKAMRMMAVLPTIVAIDMRRRRGLPPIAPHSGLGYAQNFLHMCFGEVPETAVVSAFEQSMILYAEHGFNASTFAARVVTSTQSDIYSAVTGAIGALKGRLHGGANEAVMHDMIEIGDPANAREWLRAKLARKEKIMGFGHRVYRHGDSRVPTMKRALERVGTVRDGQRWLDIYQVLAAEMASATGILPNLDFPTGPAYYLMGFDIASFTPIFVMSRITGWTAHIMEQATANALIRPLSAYCGHEQRVLPGTF
- soluble on expression in E. coli: soluble

Sequence: MGHHHHHHSHEEEGSPGGREDGFTAEHLAAEAMAADMDPWLVFDARTTPATELDAWLAKYPPSQVTRYGDPGSPNSEPVGWIAVYGQGYSPNSGDVQGLQAAWEALQTSGRPITPGTLRQLAITHHVLSGKWLMHLAPGFKLDHAWAGIARAVVEGRLQVAKVSPRAKEGGRQVICVYTDDFTDRLGVLEADSAIRAAGIKCLLTYKPDVYTYLGIYRANRWHLCPTLYESRFQLGGSARGSRVLDRANNVELT
- soluble on expression in E. coli: soluble

Sequence: MSLGNTGVASADYLTAPFYNPALVASFEEHDDFGLLLPAIGVNVRDSDESLATIDDLQDSIDEFEAAPIPSPGQIDQLNRYLDDLQGNAPLTASSSLGLAVAIPTKRFSTNLFARGYLELIARPNIADYLSTGPGNEVADTKKRYEDSSVTMAAFGYVEYGAALAKEFEIKEQRISFGVTPKIQQLTTYYVVPTVADFELDDYEESEHKESAFNLDFGVVWLKDKFQVALAVKDLLSQEIDLKDKNGQKQDVYELNTQVSAGVAYRSDFFTAAMDLDLTKQERFKSLDDETQFVRFGVEGNAWGWAQLRAGYEIDLEDTVENAFTAGIGISPFDVVSLDIAGSYAGENQFGVSGNLAFTFEGHHHHHH
- soluble on expression in E. coli: not soluble

Sequence: MSLSAPLGENMSNLTSEERHARLRQIYIEKERRQRLGSRMGLSPLEEEANDRLMAIRQVDEEFYNLWRNYHSQPPPFLKHLNIIDTNLYAALKSMPKGGLLHVHDSGMLRMEILIDLIYRDNLWVCVNLEQDFEDFRFSRYFPHIPPAEDYQCNWMLMSNFFQLESRLEFENRLRKILTVRPEGYKSSSELVRHLRRHQRIIHGLITFRPIWSEFIFTMLSDFYADGVHYVELRSSLPNMYDLDGNNFTILETAEALVSVSNIFKNSFKDFIGIKLIYAPSRNLNDSRMDEYLENARLLKLHFPNFFAGFDLNTFGDECNLPLLENVTQLLRIGKNIDFYFHAGESRCPDSSRPDANLLEALLLQSKRIGNAVNLPFHPEIMKVMKRLSIAVEICPLSNHYLQYFNDFRQHPAAYLIAAGFPIVIGSDYPCFWNSAPLTDDFYVAFVGVISGWGDLRLLKQFALNSFLFSSLSETEKNMAVSKWQCSWNRWVRNLVNSSGYEGHHHHHH
- soluble on expression in E. coli: not soluble

Sequence: MSLRKGIIAAGNMLVDHVHQIRQWPERGWLVEIVHSERATGGAPLNVLLTLAKMHAGLPLQAVGLIGEDNDGDYITAMLDQYHINRQLVQRTSSAPTSMTQVMTDAEGQRTFFHSPGANRLLDLPAFEPLDAPLKIFHLGYLLLLESLDRPDEVYGTRSARLLAQMRERGYEVSLDLVSRKGDPRYRPLVLPALKHLDYLTINELEASEFSGLEIRLPNGEPHVANIARAASALLDAGVRQRVVIHCPEGAWGVSRTEAGRWVPSWRLPPEEIIGSVGAGDAFCAGLLYGSHERWPLTASLQLAHACARASLQAANAIDGAKTLPELQAFIQLQNGEGHHHHHH
- soluble on expression in E. coli: soluble

Sequence: TTHFTVADRWGNVVSYTTTIEQLFGTGIMVPDYGVILNNELTDFDAIPGGANEVQPNKRPLSSMTPTILFKDDKPVLTVGSPGGATIISSVLQTILYHIEYGMELKAAVEEPRIYTNSMSSYRYEDGVPKDVLSKLNGMGHKFGTSPVDIGNVQSISIDHENGTFKGVADSSRNGAAIGINLKRKLEHHHHHH
- soluble on expression in E. coli: soluble

Sequence: DNNNTIEEQLNTLEKYSQGRLGVALINTEDNSQITYRGEERFAMASTSKVMAVAAVLKASEKQAGLLDKNITIKKSDLVAYSPITEKHLTTGMTLAELSAATLQYSDNTAMNKILDYLGGPAKVTQFARSINDVTYRLDRKEPELNTAIHGDPRDTTSPIAMAKSLQALTLGDALGQSQRQQLVTWLKGNTTGDNSIKAGLPKHWVVGDKTGSGDYGTTNDIAVIWPENHAPLILVVYFTQQEQNAKYRKDIIAKAAEIVTKEISNSPQTK
- soluble on expression in E. coli: soluble

Sequence: MNQAFKALADPTRRKILDLLKEGDLTAGEIAEHFNMTKPSISHHLNALKNAELIQDEKKGQFVMYSLNTTVFQDLLTWVFTFTNKGEEGK
- soluble on expression in E. coli: not soluble

Sequence: MGEEEESLAILRRHVMNELLDTERAYVEELLCVLEGYAAEMDNPLMAHLISTGLQNKKNILFGNMEEIYHFHNRIFLRELESCIDCPELVGRCFLERMEEFQIYEKYCQNKPRSESLWRQCSDCPFFQECQKKLDHKLSLDSYLLKPVQRITKYQLLLKEMLKYSKHCEGAEDLQEALSSILGILKAVNDSMHLIAITGYDGNLGDLGKLLMQGSFSVWTDHKKGHTKVKELARFKPMQRHLFLHEKAVLFCKKREENGEGYEKAPSYSYKQSLNMTAVGITENVKGDTKKFEIWYNAREEVYIIQAPTPEIKAAWVNAIRKVLTSQLQACREASQHRALEQSHSLEHHHHHH
- soluble on expression in E. coli: soluble

Sequence: MSDTANTAVEVDEQVIEKKLDDLSIGKKRSPSKDDTSKHRLPAAERIRIWEEEQKAKIVLTAGLQGKVKWYSVLRRYGFISRSDGEKDVFVHQTAISKSDTEKFYLRTLADEEEVLFDLVDGKNGPEAANVTGPAGVNVSGSKYRHQLLSRFRKNRKPKIVVGEDFDSKETEKLVEAPAVAMEKKKQRKQRKNKNRKQKDQKGAGDAADSSATTESLGTSSETASPDSKSCTKIISEEAGLSKIDRCDSALDDAGLGAQLIDAQI
- soluble on expression in E. coli: soluble

Sequence: MEKHEEENGLCKAESVDGSLDVWSCQNSDSSSADHLVVMVHGILGSTDDWKFGAEQFVKKMPDKVFVHCSEKNVSALTLDGVDVMGERLAAEVLDIIQRKPNICKISFVAHSLGGLAARYAIGKLYKPANQEDVKDSVADSSQETPKGTICGLEAMNFITVATPHLGSMGNKQVPFLFGFSSIEKVAGLIIHWIFKRTGRHLFLKDEEEGKPPLLRRMVEDTDDCHFISALRAFKRRVAYSNVGHDHVVGWKTASIRRDSELPKWEDSLNEKYPHIVYEELCKACDMEDIPEGENHSDDIEEEMIKGLSSVSWEKVDVSFHSSRQRFAAHSVIQVKNEDMHIEGADVIEHIIDHFHA
- soluble on expression in E. coli: soluble

Sequence: DIGCYTLGNAPPLELIDTCLCMGAGISIAGGISRTTKNSKNVAFIGDSTFFHSGIPAVINAVYNNADVTIAVLDNRTTAMTGHQPHPGTGKTALGKPTKLIDIEGILKSCGVEFVKTVSADDFSACKEISKEVIEYNGPSAVVFRGNCVSLVKSDKKYVIDK
- soluble on expression in E. coli: not soluble
